T1: TNF-like 1A (TL1A) (UniProt O95150 72-251)
T1 construct: TL1A (TNF-like 1A), the cytokine run over immobilised DR3 variants in SPR and added to cells; also called TL1A cytokine
T1 sequence (looked up): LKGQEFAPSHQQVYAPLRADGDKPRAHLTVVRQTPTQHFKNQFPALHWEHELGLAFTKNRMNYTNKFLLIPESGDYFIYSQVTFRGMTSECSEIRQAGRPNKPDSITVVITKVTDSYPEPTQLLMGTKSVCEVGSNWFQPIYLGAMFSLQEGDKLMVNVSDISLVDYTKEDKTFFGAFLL

B1: native DR3-Fc (human DR3 extracellular domain fused with human IgG1 Fc) (Fc fusion, UniProt Q93038 25-199, looked up)
chain: QGGTRSPRCDCAGDFHKKIGLFCCRGCPAGHYLKAPCTEPCGNSTCLVCPQDTFLAWENHHNSECARCQACDEQASQVALENCSAVADTRCGCKPGWFVECQVSQCVSSSPFYCQPCLDCGALHRHTRLLCSRRDTDCGTCLPGFYEHGDGCVSCPTSTLGSCPERCAAVCGWRQ
modifications: N-linked glycosylation (shown by Endo-H cleavage)
notes: amplified from an EST cDNA clone (Open Biosystems); pFUSE vector (Invivogen); also called WT; soluble native DR3; source: HEK293T, transfected, conditioned medium (ELISA screen); 293F (HEK293F), transfected, purified (MonoQ, SP, butyl HIC); not shown: Fc (human IgG1), C-terminal, kept

Assays:
Assay in all cases: SPR; ProteOn XPR36; DR3 variants (5 ug, acetate buffer pH 5.5) immobilised on a GLC chip, BSA as reference; TL1A run at 100, 50, 25, 12.5 and 6.25 nM, 30 ul/min, 300 s, 10 min dissociation; PBS with 2 mM DTT; Langmuir single binding site model
[1] = molecular target: DR3 variant H3 (DR3 extracellular domain-Fc) (human) (UniProt Q93038)
[2] = molecular target: DR3 variant O6 (DR3 extracellular domain-Fc) (human) (UniProt Q93038)
[3] = molecular target: T1, TNF-like 1A (TL1A); conditions: both partners purified

Molecule	Kd [1]	koff [1]	kon [1]	Kd [2]	koff [2]	kon [2]	Kd [3]	koff [3]	kon [3]
TNF-like 1A (TL1A) (from UniProt O95150 72-251) (ligand)	8.26 nM	0.000351 s⁻¹	42600 M⁻¹ s⁻¹	9.83 nM	0.000357 s⁻¹	36300 M⁻¹ s⁻¹			
B1							44.9 nM	0.00072 s⁻¹	16000 M⁻¹ s⁻¹

Source: article PMC5344418, “Directed evolution of a soluble human DR3 receptor for the inhibition of TL1A induced cytokine secretion” (PLoS ONE, 2017)
